The chains are these.
B2: Phosphoglycerate kinase 1, wild-type, His-tagged recombinant (enzyme, UniProt P00558 1-417, looked up)
chain: MSLSNKLTLDKLDVKGKRVVMRVDFNVPMKNNQITNNQRIKAAVPSIKFCLDNGAKSVVLMSHLGRPDGVPMPDKYSLEPVAVELKSLLGKDVLFLKDCVGPEVEKACANPAAGSVILLENLRFHVEEEGKGKDASGNKVKAEPAKIEAFRASLSKLGDVYVNDAFGTAHRAHSSMVGVNLPQKAGGFLMKKELNYFAKALESPERPFLAILGGAKVADKIQLINNMLDKVNEMIIGGGMAFTFLKVLNNMEIGTSLFDEEGAKIVKDLMSKAEKNGVKITLPVDFVTADKFDENAKTGQATVASGIPAGWMGLDCGPESSKKYAEAVTRAKQIVWNGPVGVFEWEAFARGTKALMDEVVKATSRGCITIIGGGDTATCCAKWNTEDKVSHVSTGGGASLELLEGKVLPGVDALSNI
notes: Phosphoglycerate kinase 1 (PGK1), wild-type, cloned into the BamHI and XhoI sites of pET32a; also called PGK1; His-tagged PGK1

The target of one experiment is Hrs (UniProt O14964). Kind of experiment: co-immunoprecipitation from cell lysate. As to conditions: reference: wild type; sites S203.
For experiment [1], the target named is B2. Put plainly: pull-down; competition with purified components: increasing level of an EGFR peptide (dileucine signal or mutated) added to the pull-down of PGK1 by GST-EGFR. As to conditions: both partners purified.
Experiment [2] deals with T1, GST fused to the cytoplasmic domain of the epidermal growth factor receptor (UniProt P00533 669-1210).
T1 construct: Epidermal growth factor receptor (EGFR), cytoplasmic domain appended to the carboxy terminus of GST in pGEX-4T-1; also called GST-EGFR cytoplasmic domain; source: E. coli BL21, purified on glutathione-Sepharose 4B beads; not shown: GST, N-terminal, kept
Put plainly: pull-down; GST-fusion proteins on glutathione beads incubated with soluble proteins (100 nM), 4 °C, 1 h, PBS with 0.05% Triton X-100 and protease inhibitors; two washes; SDS-PAGE with Coomassie staining or western blot. Conditions: both partners purified. (In general: Immunoblotting shows a protein as a band on a membrane.)

PGK1 (from UniProt P00558) S203A: in the experiment with Hrs, the “binding against the reference” value is recorded as “weaker”.

B1: EGFR peptide, wild-type (contains the dileucine sorting signal) (peptide)
peptide: PNQALLRILKETE
notes: Stretch of the juxta-membrane region of the epidermal growth factor receptor (EGFR) with the dileucine sorting signal; also called peptide that contains the relevant dileucine motif; source: synthetic peptide (core facility)
In the case of B1, the binding result in experiment [1] is reported as “binds”.
In the case of B2, the binding result in experiment [2] is reported as “binds”.

The values are drawn from publication PMC10838266 (Nature Communications, 2024).
